± gives the half width of the 95% confidence interval.
test: folding stability dG unfold from chymotrypsin proteolysis; higher = more stable
Summary of the method: (§1)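 Designed mini-proteins (under 80 residues, no cysteine) in a PA-tagged cDNA display construct were digested with trypsin and chymotrypsin. Each protease was used at 11 concentrations (threefold dilutions) plus a no-protease condition, followed by sequencing. K50 was inferred by Bayesian fitting of sequencing counts, and unfolding free energy was derived against a sequence-predicted unfolded-state K50 and a shared folded-state K50, per protease or combined. Only designs with AlphaFold2 dimer inter-PAE above 15 were kept.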

| Sequence | folding stability dG unfold |
| --- | --- |
| SAGGGSMKTIELTVTNPATGETVTVTLELDPSVSEEEVEARIKETEEAVEKELLAPEPPLAPTPARASAGGS [r16_191_JUSTAS] | 1.22 ± 0.023 kcal/mol |
| SAGGMSKEELAKKLAKELAEKLGIKEIKEIKIEKKKDKVKITIVFKENKKIIEIELKDGKIVKIKEKSAGGS [r16_171_TrROS_Hall] | 3.22 ± 0.16 kcal/mol |
| MIPLTLEYDPEKKVIRLKTPDGKPVIVEAGDKGYRVIIYDPKTGKPTVIPVTEKELLDLAKNPAFNLDLAAS [r1_18_TrMRF] | 1.23 ± 0.076 kcal/mol |
| SPLTAEQIKKLLRELFPNAKIVSIEYDKENKTVTITFEDGLKIEVTVTEDGRVIIRITLPGKEITIEIEVSA [r9_304_TrROS_Hall] | 4.03 ± 0.23 kcal/mol |
| SPGWYKVDIEIPMKEIQEEFGDPDKPITADRIKERVKKIAETIGFEVRDVEIEMDPNGWVRVTVTIPVKNSA [r9_52_TrROS] | 3.89 ± 0.11 kcal/mol |
| SAMKIIKINGKEVLLVKNENGEILIFVKNKKTNKYYLVKIEIKDGKIKIVEVKPIKTYSLEELLKEELLSAG [r14_384_TrROS_Hall] | 3.45 ± 0.023 kcal/mol |
| GMPYTVDVVIEEAEDGVIIPIKLSVDGALVAEAVAPVDPVTKKVVIKPGAASKEALDVALEKLKELGIEPGS [r1_455_TrMRF] | 0.537 ± 0.17 kcal/mol |
| SAGGSAGGSAGGAEEIARKLAEETGKKVTIRIRLPNGEVYEIELDEPLEEIEGAEIVEIESAGGSAGGSAGG [r7_998_TrROS_Hall] | 1.79 ± 0.036 kcal/mol |
| SAGGIWIPVPNADWAVDFIIEFIDQFGPGAKIDKITVYNGGKEREITPGEPPKIPPGSWFEIDLEPKSAGGS [r16_267_TrROS] | 1.15 ± 0.085 kcal/mol |
| SAGAEVEVVELTDEEIEALAKELNPDVTIEVVVVRVPPPPEKVEVRDPETGETVTLTVTPDGEIRAEKSAGG [r19_70_TrROS_Hall] | -0.235 ± 0.16 kcal/mol |
| SAGGSAGGSAGKMLLIEIEVDGKKYLIEIEVPEGEEITPEELAKLLGIPNVKVKVYELEESAGGSAGGSAGG [r11_219_TrROS_Hall] | 3.41 ± 0.04 kcal/mol |
| SSSSTLVSSYTLTLKDEKGNEITLKVDVYKFPSGSYRVEITRPDGTVTEYEFPASEPPTEEKIKELALKKSA [r9_616_JUSTAS] | 6.01 ± 0.13 kcal/mol |
| SAGGSERTIMIPVEPGMSPEQIADEIKAILRELGPGRPIEIDDVHPGGWVKIKINNKPIKIHIMWPSAGGSA [r2_102_TrROS] | 1.3 ± 0.081 kcal/mol |
| SAGGSAGGLPPGQSIEIFIFSMFPTPNGNLNLEMIQITIRIRPVVRKPDNGGEKYVPPDDPDLASAGGSAGG [r6_405_TrROS] | 4.36 ± 0.22 kcal/mol |
| SAGGSAMIVIPVDPNDPAAEKTVAEAIAAGKDVIIRSPSGKYTFYKPDGSKKELSSEEEIKKAGLESAGGSA [r15_94_JUSTAS] | -0.495 ± 0.77 kcal/mol |
| SAGGSAGGSAGGSKPKMYILKIKIKVEVKYDKETNEIVEEEIEIEIEIIEVKPGEKLELSAGGSAGGSAGGS [r4_175_TrROS_Hall] | 3.28 ± 0.092 kcal/mol |
| SAGGSAIDPRLLKLPKVKVEILSVEPVTGEDDKPFFVAKVKTDLEPGFYAYIILDPETGKIVKVFDSAGGSA [r15_66_TrMRF] | 1.57 ± 0.093 kcal/mol |
| SMTVVTVEKTPDGGVTITVYVPETGEEVEIPVTDPEVQKKATEDPNTTVKVPKEVLESFYPDRITSLSYTSA [r9_390_JUSTAS] | -0.169 ± 0.22 kcal/mol |
| SAGGMVLVRIRVDMSPEERKRLEEELRKRVTEVRYLPEDEDVVEVRVSPEALAELPEERITEVELLPSAGGS [r16_328_TrROS_Hall] | -0.654 ± 0.32 kcal/mol |
| SAGGSAGGSAGGLPNIPGFVLLETYSETFNVPLPENRTATITKTLILHPNALLESYSINPSAGGSAGGSAGG [r7_945_TrMRF] | -0.353 ± 0.23 kcal/mol |
| SAGMVKAKLKVIPVTVDGKPKLYVKVELEIPGGPKFELVFETGSPEKAKELLEKLGLKVKDEDIEIEESSAG [r5_233_TrMRF] | 3.69 ± 0.14 kcal/mol |

| Sequence | folding stability dG unfold |
| --- | --- |
| SAGMPLYRIRVHPDIPDRIEITEVDAEDLPPGAVLKIRFRETGETVEVPLSDLDELLALPGIEEVELVSAGG [r19_302_TrROS_Hall] | 1.11 ± 0.13 kcal/mol |
| SAGGYKFTIIARFDSVEEAKEWVEEIIRDIFPDNGIEVEVEVETDPENGGVYVKATIEVPPPDPDDFSAGGS [r8_17_TrROS] | 4.36 ± 0.23 kcal/mol |
| SKLVEKIAEEFGISSAMPHPDGQFMIMFPDGYMIKINIEIDEVKPKPDGKPELDLDIEIEIIPMPPPDDMSA [r9_648_TrROS] | 2.74 ± 0.072 kcal/mol |
| SKPDAPKIVELLRELFPDLEITSVSYDPETGTYTVTFPDGVVAEVHVDPNGNVHIVLRTPTSERTFTLPVSA [r9_304_TrMRF] | 2.38 ± 0.043 kcal/mol |
| SAGGSAGGSAGGMPTTATITLPGGETLTVPVPVDPSTGTVSEEEIRALVGPEFEFEILGGSAGGSAGGSAGG [r7_492_JUSTAS] | 1.49 ± 0.062 kcal/mol |
| SAPSPKTPETLVFLSEEESEVVEERLSPSGKPFLVKRKRRFLRYRYVDEDGNVTSVGEREEPVEEELVLSAG [r14_934_JUSTAS] | 0.231 ± 0.13 kcal/mol |
| SAGGSADNIEFKFPGIEEVTVWPDKIMFKLPNGYYYVITINNIDEIEIIEVIPPVPPPPPEDPDDKSAGGSA [r15_393_TrROS] | 2.29 ± 0.11 kcal/mol |
| SAGMKAYNIKELKIEKIEKKGNKIKIKISGKGKFYFKTFSNGSAIIYIKKTNKAYYIDSNGKIVYIKDTSAG [r5_348_TrMRF] | 1.56 ± 0.13 kcal/mol |
| SAGKPKKKIKIKLYNVDTGEEIEIEVTVEELKKLLEKLGFEVVKIEYDEETGEVTIYVKVDGYYLEIEESAG [r5_521_TrROS_Hall] | 3.55 ± 0.13 kcal/mol |
| SAGGSAGGSAGGGMTTTKTEVSFSPAGGLVTTKSTERLPGTGELKEVTSVTPLASSGTTSAGGSAGGSAGGS [r10_296_JUSTAS] | 0.846 ± 0.034 kcal/mol |
| SAGGSAGGSADIKVEVEYDKSNGYMWVKIKLPGKDIPIWIPPNDSPEQMEEKAIDFAKYLLKSAGGSAGGSA [r18_266_TrROS] | 0.765 ± 0.21 kcal/mol |
| SAGGPYYEWEIKLPDNKTISITMRRNPENGRPQHTVTIHDPEKGKPVKEHPFDSPEEAEELIEEGLLSAGGS [r8_450_TrROS] | 0.445 ± 0.21 kcal/mol |
| SAGLKIVEDIRKKLEEEGYDVKVKYEIKPEPKDGKYIITIEVTIKDEKGNEVPIGKETIVIPLEEYEKSSAG [r5_413_JUSTAS] | 2.74 ± 0.083 kcal/mol |
| SAGGSAGGSAGGIAEALKAAFPDEGVEVVSIHPDGKVEVRVDGTPELREKVEKAVKELLSSAGGSAGGSAGG [r11_418_TrMRF] | 0.621 ± 0.067 kcal/mol |
| SAGGSAGGSATLTLELEIEVDGVRFRVRAELRLDEDGRLHLRVEIEVEPLPPPPPLVAEGEELSAGGSAGGS [r20_30_TrROS_Hall] | 4.33 ± 0.23 kcal/mol |
| SAGGMTIITTTFTLKLPSNGKVVTVTKTYNLSPEEGKKEAEKIAKEIAEELKEPTEILEIKITYYPESAGGS [r16_140_JUSTAS] | 2 ± 0.085 kcal/mol |
| SAGGSAKKPKWIPIKIKLPGSLEEAREWAEEIAKWLAKQNGDIKIDAIKYERDPNGHVEVTIQVRVSAGGSA [r15_718_TrROS] | 3.83 ± 0.059 kcal/mol |
| SADEALRRLLENMTPEELAALLAPAVPGPPVEVLVVPREVLPEVLRRLREEFDVEFEEEGDFVRIVVRGSAG [r14_7_TrMRF] | 2.915 ± 0.016 kcal/mol |
| SAGGSVFESEKDLRVEVYKIKVGTTLGKEKNGKPKKPKFKEKEVLVVKVEVPLEDGTTLSAEFTFGSAGGSA [r2_218_TrMRF] | 3.24 ± 0.073 kcal/mol |
| SSAEEIVEKLKKELEEKLPEDYKITSVTLTKSPDGIVTAPMTIKSSDGVESTVTVTYDLKTGKITIEVNSSA [r9_219_JUSTAS] | 4.84 ± 0.12 kcal/mol |
| SAGGMPVVKVTLRVELPETGETVDVTLYVDPSVPEEYLERLVRRVAEEVARLLRLPPPPVPPRPDELSAGGS [r16_191_TrMRF] | 3.64 ± 0.057 kcal/mol |

test: folding stability dG unfold from trypsin proteolysis; higher = more stable
Summary of the method: as §1

| Sequence | folding stability dG unfold |
| --- | --- |
| SAGGGSMKTIELTVTNPATGETVTVTLELDPSVSEEEVEARIKETEEAVEKELLAPEPPLAPTPARASAGGS [r16_191_JUSTAS] | -0.465 ± 0.096 kcal/mol |
| SAGGMSKEELAKKLAKELAEKLGIKEIKEIKIEKKKDKVKITIVFKENKKIIEIELKDGKIVKIKEKSAGGS [r16_171_TrROS_Hall] | 3.36 ± 0.15 kcal/mol |
| MIPLTLEYDPEKKVIRLKTPDGKPVIVEAGDKGYRVIIYDPKTGKPTVIPVTEKELLDLAKNPAFNLDLAAS [r1_18_TrMRF] | 1.94 ± 0.025 kcal/mol |
| SPLTAEQIKKLLRELFPNAKIVSIEYDKENKTVTITFEDGLKIEVTVTEDGRVIIRITLPGKEITIEIEVSA [r9_304_TrROS_Hall] | 4.22 ± 0.3 kcal/mol |
| SPGWYKVDIEIPMKEIQEEFGDPDKPITADRIKERVKKIAETIGFEVRDVEIEMDPNGWVRVTVTIPVKNSA [r9_52_TrROS] | 3.77 ± 0.3 kcal/mol |
| SAMKIIKINGKEVLLVKNENGEILIFVKNKKTNKYYLVKIEIKDGKIKIVEVKPIKTYSLEELLKEELLSAG [r14_384_TrROS_Hall] | 3.22 ± 0.16 kcal/mol |
| GMPYTVDVVIEEAEDGVIIPIKLSVDGALVAEAVAPVDPVTKKVVIKPGAASKEALDVALEKLKELGIEPGS [r1_455_TrMRF] | -0.487 ± 0.4 kcal/mol |
| SAGGSAGGSAGGAEEIARKLAEETGKKVTIRIRLPNGEVYEIELDEPLEEIEGAEIVEIESAGGSAGGSAGG [r7_998_TrROS_Hall] | 0.639 ± 0.018 kcal/mol |
| SAGGIWIPVPNADWAVDFIIEFIDQFGPGAKIDKITVYNGGKEREITPGEPPKIPPGSWFEIDLEPKSAGGS [r16_267_TrROS] | 0.698 ± 0.037 kcal/mol |
| SAGAEVEVVELTDEEIEALAKELNPDVTIEVVVVRVPPPPEKVEVRDPETGETVTLTVTPDGEIRAEKSAGG [r19_70_TrROS_Hall] | 0.624 ± 0.091 kcal/mol |
| SAGGSAGGSAGKMLLIEIEVDGKKYLIEIEVPEGEEITPEELAKLLGIPNVKVKVYELEESAGGSAGGSAGG [r11_219_TrROS_Hall] | 2.47 ± 0.065 kcal/mol |
| SSSSTLVSSYTLTLKDEKGNEITLKVDVYKFPSGSYRVEITRPDGTVTEYEFPASEPPTEEKIKELALKKSA [r9_616_JUSTAS] | 4.47 ± 0.46 kcal/mol |
| SAGGSERTIMIPVEPGMSPEQIADEIKAILRELGPGRPIEIDDVHPGGWVKIKINNKPIKIHIMWPSAGGSA [r2_102_TrROS] | 1.31 ± 0.038 kcal/mol |
| SAGGSAGGLPPGQSIEIFIFSMFPTPNGNLNLEMIQITIRIRPVVRKPDNGGEKYVPPDDPDLASAGGSAGG [r6_405_TrROS] | 2.87 ± 0.11 kcal/mol |
| SAGGSAMIVIPVDPNDPAAEKTVAEAIAAGKDVIIRSPSGKYTFYKPDGSKKELSSEEEIKKAGLESAGGSA [r15_94_JUSTAS] | 0.249 ± 0.086 kcal/mol |
| SAGGSAGGSAGGSKPKMYILKIKIKVEVKYDKETNEIVEEEIEIEIEIIEVKPGEKLELSAGGSAGGSAGGS [r4_175_TrROS_Hall] | 1.42 ± 0.13 kcal/mol |
| SAGGSAIDPRLLKLPKVKVEILSVEPVTGEDDKPFFVAKVKTDLEPGFYAYIILDPETGKIVKVFDSAGGSA [r15_66_TrMRF] | 1.19 ± 0.038 kcal/mol |
| SMTVVTVEKTPDGGVTITVYVPETGEEVEIPVTDPEVQKKATEDPNTTVKVPKEVLESFYPDRITSLSYTSA [r9_390_JUSTAS] | 0.134 ± 0.098 kcal/mol |
| SAGGMVLVRIRVDMSPEERKRLEEELRKRVTEVRYLPEDEDVVEVRVSPEALAELPEERITEVELLPSAGGS [r16_328_TrROS_Hall] | 0.217 ± 0.15 kcal/mol |
| SAGGSAGGSAGGLPNIPGFVLLETYSETFNVPLPENRTATITKTLILHPNALLESYSINPSAGGSAGGSAGG [r7_945_TrMRF] | -0.198 ± 0.27 kcal/mol |
| SAGMVKAKLKVIPVTVDGKPKLYVKVELEIPGGPKFELVFETGSPEKAKELLEKLGLKVKDEDIEIEESSAG [r5_233_TrMRF] | 2.83 ± 0.11 kcal/mol |
